In the test the target is naked mole-rat ASIC1b (naked mole-rat).

For naked mole-rat ASIC3 (natural protein), the pH EC50 of proton-gated currents, whole-cell patch clamp of CHO cells cotransfected with nmrASIC3 + nmrASIC1b was 5.58 pH.

For the origin of these results see publication PMC5798305.
